{"source": "patent US20260049138A1", "about": "(Chugai, published 2026)", "biological_target": "T1, CD3ε homodimer protein (human, UniProt P07766 23-126, limits assumed, sulfo-tag or biotin label in the ECL assays; amine-coupled to the chip in SPR)", "T1 construct": "also called human CD3ε homodimer protein; CD3 (CD3ε)", "T1 sequence (P07766 23-126 limits assumed)": "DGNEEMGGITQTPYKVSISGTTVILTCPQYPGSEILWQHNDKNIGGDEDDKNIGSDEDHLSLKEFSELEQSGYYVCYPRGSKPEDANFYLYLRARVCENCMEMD", "assay": "SPR Biacore T200; CD3ε homodimer on CM4 chip;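 note: Single-residue variant antibodies injected as analyte over CD3ε homodimer immobilized by amine coupling, run at 25 °C in HBS-EP+ buffer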"}
{"binder": "CE115HA000 N53G one-arm antibody (antibody, human IgG1, kappa, L234A L235A, N297A, name in Kabat numbering) heavy: QVQLVESGGGVVQPGRSLRLSCAASGFTFSNAWMHWVRQAPGKGLEWVAQIKAKSGNYATYYAESVKGRFTISRDDSKNSLYLQMNSLKTEDTAVYYCRYVHYGAYYGVDAWGQGTTVTVSSASTKGPSVFPLAPSSKSTSGGTAALGCLVKDYFPEPVTVSWNSGALTSGVHTFPAVLQSSGLYSLSSVVTVPSSSLGTQTYICNVNHKPSNTKVDKKVEPKSCDKTHTCPPCPAPEAAGGPSVFLFPPKPKDTLMISRTPEVTCVVVDVSHEDPEVKFNWYVDGVEVHNAKTKPREEQYASTYRVVSVLTVLHQDWLNGKEYKCKVSNKALPAPIEKTISKAKGQPREPQVYTLPPSRCELTKNQVSLSCAVKGFYPSDIAVEWESNGQPENNYKTTPPVLDSDGSFFLVSKLTVDKSRWQQGNVFSCSVMHEALHNHYTQKSLSLSPDYKDDDDK EPKSSDKTHTCPPCPAPELLGGPSVFLFPPKPKDTLMISRTPEVTCVVVDVSHEDPEVKFNWYVDGVEVHNAKTKPREEQYNSTYRVVSVLTVLHQDWLNGKEYKCKVSNKALPAPIEKTISKAKGQPREPQVCTLPPSRDELTKNQVSLWCLVKGFYPSDIAVEWESNGQPENNYKTTPPVLDSDGSFFLYSKLTVDKSRWQQGNVFSCSVMHEALHNRYTQKSLSLSP light: DIVMTQSPLSLPVTPGEPASISCRSSQSLVHSNRNTYLHWYQQKPGQAPRLLIYKVSNRFSGVPDRFSGSGSGTDFTLKISRVEAEDVGVYYCGQGTQVPYTFGQGTKLEIKRTVAAPSVFIFPPSDEQLKSGTASVVCLLNNFYPREAKVQWKVDNALQSGNSQESVTEQDSKDSTYSLSSTLTLSKADYEKHKVYACEVTHQGLSSPVTKSFNRGEC", "values": [{"measurement": "ratio of amounts bound Z=Y/X (altered form / CE115HA000)", "result": 0.5}]}
{"binder": "CE115HA000 N53H one-arm antibody (antibody, human IgG1, kappa, L234A L235A, N297A, name in Kabat numbering) heavy: QVQLVESGGGVVQPGRSLRLSCAASGFTFSNAWMHWVRQAPGKGLEWVAQIKAKSHNYATYYAESVKGRFTISRDDSKNSLYLQMNSLKTEDTAVYYCRYVHYGAYYGVDAWGQGTTVTVSSASTKGPSVFPLAPSSKSTSGGTAALGCLVKDYFPEPVTVSWNSGALTSGVHTFPAVLQSSGLYSLSSVVTVPSSSLGTQTYICNVNHKPSNTKVDKKVEPKSCDKTHTCPPCPAPEAAGGPSVFLFPPKPKDTLMISRTPEVTCVVVDVSHEDPEVKFNWYVDGVEVHNAKTKPREEQYASTYRVVSVLTVLHQDWLNGKEYKCKVSNKALPAPIEKTISKAKGQPREPQVYTLPPSRCELTKNQVSLSCAVKGFYPSDIAVEWESNGQPENNYKTTPPVLDSDGSFFLVSKLTVDKSRWQQGNVFSCSVMHEALHNHYTQKSLSLSPDYKDDDDK EPKSSDKTHTCPPCPAPELLGGPSVFLFPPKPKDTLMISRTPEVTCVVVDVSHEDPEVKFNWYVDGVEVHNAKTKPREEQYNSTYRVVSVLTVLHQDWLNGKEYKCKVSNKALPAPIEKTISKAKGQPREPQVCTLPPSRDELTKNQVSLWCLVKGFYPSDIAVEWESNGQPENNYKTTPPVLDSDGSFFLYSKLTVDKSRWQQGNVFSCSVMHEALHNRYTQKSLSLSP light: DIVMTQSPLSLPVTPGEPASISCRSSQSLVHSNRNTYLHWYQQKPGQAPRLLIYKVSNRFSGVPDRFSGSGSGTDFTLKISRVEAEDVGVYYCGQGTQVPYTFGQGTKLEIKRTVAAPSVFIFPPSDEQLKSGTASVVCLLNNFYPREAKVQWKVDNALQSGNSQESVTEQDSKDSTYSLSSTLTLSKADYEKHKVYACEVTHQGLSSPVTKSFNRGEC", "values": [{"measurement": "ratio of amounts bound Z=Y/X (altered form / CE115HA000)", "result": 0.76}]}
